# Results: patent US20220098591
# Experiments:
# VEGF-A165 (Homo sapiens) = system: T1, VEGF-A165 (Homo sapiens); conditions: all G 2'-F; A,C,U 2'-OMe; Sp3 (1,3-propanediol) joins the two parts (position 9); 5' C6NH2; 3' idT; direct TR-FRET, RT
# T1 sequence: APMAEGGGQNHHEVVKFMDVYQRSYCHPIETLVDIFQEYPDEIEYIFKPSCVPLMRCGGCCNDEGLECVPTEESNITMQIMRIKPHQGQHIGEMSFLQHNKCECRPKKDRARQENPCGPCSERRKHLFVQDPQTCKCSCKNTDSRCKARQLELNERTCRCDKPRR
# VEGF-A121 (Homo sapiens) = target: T2, VEGF-A121 (Homo sapiens) (UniProt P15692); conditions: all G 2'-F; A,C,U 2'-OMe; Sp3 (1,3-propanediol) joins the two parts (position 9); 5' C6NH2; 3' idT; direct TR-FRET, RT
# T2 sequence: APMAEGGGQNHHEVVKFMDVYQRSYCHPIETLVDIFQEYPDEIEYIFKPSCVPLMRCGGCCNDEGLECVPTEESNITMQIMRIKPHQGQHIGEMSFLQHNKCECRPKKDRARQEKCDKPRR
sequence,measurement,setting,value
AGGCCGCCCCGCGCGGAGGGGUUUCAUUAUCCCGUUUGGCGGCUU [Aptamer 47],Kd,VEGF-A165 (Homo sapiens),2.1 nM
same,Kd,VEGF-A121 (Homo sapiens),11 nM
